Here are results for one molecule from patent US20240182596A1 (TUBULIS, published 2024).

In assay [1] the target is T1, human NaPi2b on NaPi2b-positive cell lines OVCAR-3 and HCC-78 (human, UniProt O95436 1-690).
T1 construct: Endogenous protein
T1 sequence: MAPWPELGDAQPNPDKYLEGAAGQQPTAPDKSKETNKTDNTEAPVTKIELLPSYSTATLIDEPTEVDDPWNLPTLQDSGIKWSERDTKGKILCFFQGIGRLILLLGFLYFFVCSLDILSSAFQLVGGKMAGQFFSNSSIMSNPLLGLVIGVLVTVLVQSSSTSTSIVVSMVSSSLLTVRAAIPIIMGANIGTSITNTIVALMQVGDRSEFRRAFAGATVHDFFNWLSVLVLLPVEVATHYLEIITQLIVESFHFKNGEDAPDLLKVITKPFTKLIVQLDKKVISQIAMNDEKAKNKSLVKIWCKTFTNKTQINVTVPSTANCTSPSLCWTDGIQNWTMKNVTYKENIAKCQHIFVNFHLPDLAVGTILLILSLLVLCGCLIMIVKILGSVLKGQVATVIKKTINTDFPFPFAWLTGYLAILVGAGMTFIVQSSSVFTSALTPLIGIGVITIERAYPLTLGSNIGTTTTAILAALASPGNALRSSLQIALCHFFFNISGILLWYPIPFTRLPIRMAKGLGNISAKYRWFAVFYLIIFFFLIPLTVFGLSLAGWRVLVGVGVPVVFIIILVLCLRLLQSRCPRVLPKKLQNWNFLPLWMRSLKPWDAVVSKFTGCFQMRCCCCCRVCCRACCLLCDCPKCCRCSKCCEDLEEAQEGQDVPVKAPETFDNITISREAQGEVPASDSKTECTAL
As to the kind of experiment: flow cytometry on HCC-78 cells, one-site fit. (Flow cytometry measures light scatter and fluorescence of single cells or particles in a stream.)

Assay [2] addresses T2, recombinant human FcγRI (FcγR-SmBiT, Lumit assay) (human, UniProt P12314 16-292).
T2 construct: Kit reagent (Promega); also called FcγRI (CD64); not shown: SmBiT label of the kit
Kind of assay: Lumit FcγRI Binding Immunoassay (Promega), competition with Tracer-LgBiT for FcγRI-SmBiT, falling luminescence means binding, n=1.

Another assay concerns the target T3, FcγRIIa (CD32) (H131) (Fused to the SmBiT luciferase fragment (Promega Lumit reagent), not carried in the letters).
T3 construct: m20 joins both polymorphic variants; also called H131 variant of m20; not shown: SmBiT tag (and any linker or purification tag) of Promega's FcγR-SmBiT fusion
T3 chain: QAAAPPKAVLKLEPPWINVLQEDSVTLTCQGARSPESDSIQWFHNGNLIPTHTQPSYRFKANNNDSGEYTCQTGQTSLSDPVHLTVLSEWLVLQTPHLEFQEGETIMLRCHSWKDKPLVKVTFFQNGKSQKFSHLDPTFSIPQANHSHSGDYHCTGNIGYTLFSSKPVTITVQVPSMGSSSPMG
Kind of assay: Lumit FcγRIIa (H131) Binding Immunoassay (Promega), left panel FcγRIIa (CD32) (H131), competition with Tracer-LgBiT for FcγR-SmBiT, n=1.

For assay [3], the target named is T1, human NaPi2b on NaPi2b-positive cell …. Kind of assay: flow cytometry on NaPi2b-positive HCC-78 cells, Alexa-dye-labeled anti-human IgG H+L secondary antibody, MFI ratio normalized to the non-specific binding control.
In assay [4] the target is T4, human Napi2b-mCherry on HEK293 cells (human, UniProt O95436 1-690).
T4 construct: also called Napi2b (SLC34A2); HEK293 cells overexpressing Napi2b
T4 sequence: T1 sequence
Kind of assay: flow cytometry on HEK293 cells stably expressing human full-length NaPi2b-mCherry, Alexa-dye anti-human IgG H+L secondary antibody, MFI ratio, one-site specific binding fit; the Kd table prints no unit, the concentration axis is in nM.

T2 sequence (P12314 16-292): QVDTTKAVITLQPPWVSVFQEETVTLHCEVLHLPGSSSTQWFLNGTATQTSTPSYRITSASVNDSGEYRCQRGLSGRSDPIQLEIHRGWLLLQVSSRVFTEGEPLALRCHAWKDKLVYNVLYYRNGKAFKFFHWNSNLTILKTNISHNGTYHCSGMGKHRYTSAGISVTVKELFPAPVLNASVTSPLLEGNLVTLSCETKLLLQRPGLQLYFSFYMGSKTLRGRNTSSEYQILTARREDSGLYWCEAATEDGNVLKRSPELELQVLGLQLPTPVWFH

B1: AV25 mAb, LALA-silenced (AV25 HC-LALA) (antibody, human IgG1, kappa, L234A L235A)
heavy: not shown
light: DIQMTQSPSSLSASVGDRVTITCSASQDIGNFLNWYQQKPGKTVKVLIYYASSLYSGVPSRFSGSGSGTDYTLTISSLQPEDFATYYCQQYSKLPLTFGQGTKLELKRTVAAPSVFIFPPSDEQLKSGTASVVCLLNNFYPREAKVQWKVDNALQSGNSQESVTEQDSKDSTYSLSSTLTLSKADYEKHKVYACEVTHQGLSSPVTKSFNRGEC
notes: also called unmodified AV25 mAb
On to B1, for which the results for the Kd in assay [1] and in assay [4] were 0.42 µg/mL and 1.52 nM, respectively. The results for the binding result (in assay [2]; with FcγRIIa (CD32) (H131)) were “binds” and “no binding”, respectively. Further, in assay [3], the EC50 (read off the curve) – broadly, the concentration that produces a half-maximal response – is ~0.4 µg/mL.
